Values of other authors, collected in patent US20230250195A1, “Methods for Reducing Infusion-Related Reactions in Patients Treated with EGFR/Met Bispecific Antibodies” (Janssen Biotech, Inc., priority 2022, published 2023).

Details: 302 patients with locally advanced or metastatic NSCLC; IV amivantamab at recommended Phase 2 dose (RP2D) as a single agent

amivantamab: IgG1 anti-EGFR/c-Met bispecific antibody described in U.S. Pat. No. 9,593,164
incidence of infusion-related reactions (IRRs): 66%
